In a protein production outcome set (Wang et al. 2014):

Experiment: label from the status in PepcDB records

With “MLISKKTLGVLIPDIFSFSNDQIAQKLEQMGIEVESIKQFNSPDYLQLAKVVSIQPHPHDNKLFICELQIDKNKFINVVSNANNINNPDNINKFVIVAKKGTELLNGLIVKTQNIKGIISEGILCSYIDINPFSRQIIEKTEVADAIIIDHVSNDHDWNQYLSFLSLDDVIFDVKTPTNRADLHSLIFLAKELGVLLKTKTFLKQKSSVVNHDFFKFPLNLKNKLKANYFGGLFLRQINQHSSPWTVKGLLINQMIKPVNYYVDKANLVTVFTAQPIHCHDADRIVGNIELKQATHNETFVGLDDKQYEIEPGDIVVCDEKGIIALVGIIGSKRTMVQPTTTNIFFEVVNCNSETIKQTAKRFLINNFASKFMVKPISLLATDNCLNYLQNSLLTTDNIGKISHFSSSLKVEPFSKKLTVNFHKIRQLIGIEKKELTDQTIKKSLSQLGFKVDNQLLKIPSYRQDINTWQDISEEIVKLIDINKLKPIGITSSFNFEKSSYFNTFNALTKLRKKLQTLGFHNVITYQLTDQKSAKTFNLFNLENFITIKNPVSQNHSVMRVSLIDSLLKVLKTNNNYKNELVNIFEFSFIKTQNNSELHLAVLWVEKLFTSSFNPMQGISNDVFTMKGLAKLIVANLGFSCDFEPLDDSDYFVNNQSLKIVVFNEQIGFIGLIKESLLNNYDLNNKPIYCLEINLDRMLSSLNRIEKNYLGYSKLQPVCKDLTFSFTNPASHFDQFANMIKRITGIESWKLISVFETMQNNQLITKYTVRYFLKNDANKPLTNQTIELITNNLKLQCEKLKIKLDI” the protein production was “failed”.

For “NANDQAIAYVMLGNKAQTVLNGNLKVDFMETENSSSVKKQKALVAKVSQREEMVKKCLGELTEVCKSLGKVFGVHYFNIFNTVTLKKLAESLSSDPEVLLQIDGVTEDKLEKYGAEVISVLQKYSEWTSPAED”, the protein production was “failed”.

In the case of “MAKQATTSRLLPESMDNSGEFWLHAFESLVADLPEPAFVVDADGDITHWNQAVENILGLPASEAVGMNAYDVFGTEGQDETLAQEVIRTGEPVREDEFRSAERPDGTMAHARAVAIPLMGPGGDAIGALELLIDFSDIVEQREALQSLQSQMATDVESAVGEIGDSAAAVTEQSDDIKQMAGEQSENLDEVQSEVSGFSATVEEIASSAEEVSSQSGEARELAEESVETAEETIERVEDATESAEQVASDSTELRGHIEEIDEFVEVINDIADQTNMLALNANIEAARSNSDSDGFAVVADEIKELADESKQHADEVERIVGEVREMADSTAENVEETTDAIQQALTDIETVLDNQQAIVDATSETEQGIGEVAAATDDQAASAEEIASMIDEIAQRAAEVSESIDELADANETQHRLAQDLEENVERVERRLAEIME”, the protein production is reported as “failed”.

For “MPPCYQHEEEKFFLNAKGQKEALPSIWDSPTKQLSVVVPSYNEEKRLPVMMDEALNYLEKRQKHDCTFTYEVIVVDDGSEDQTSKVALKYCQKYGSDKVRVITLVRNRGKGGAVRMGVFSSRGEKILMADADGATKFPDVEKLEKGLSDLQPWPEQMAIACGSRAHLEKESIAQRSYFRTFLMYGFHFLVWFLCVKGIRDTQCGFKLLTREAAARTFSSLHIERWAFDVELLYIAQCLQIPIAEVAVNWTEIEGSKLVPFWSWLQMGKDLLFIRLRYLTGAWRLKQTRKAS”, the protein production was “failed”.

In the case of “MMNIRSKYAVYIFPLLLILFFVGTASALPTVAHDRVQGEMYVASTANWDSHYSTNSFDVPNGTVVFARYYVGVWASGTPSSISATFNGHAFETNPSYYISGMGVTWIPFNVTDYVQPGETNTATIDSSHWGDGRQYGSTLVVVLENENKPEVEYWIAEGLDWVIGYGSSTTYFNDTNIDLDDVDSASLYSTILTGYSSESLNGESLSGAVDSVSGAYFNYIRWDNVKDSLTAENQTIKVVGDGDYTSAVLHGLSITYKIPDLVPTSLTPSYVTPGTVNTMTATIENTDKDSPSFNVSLIADGTVVDTQDVSGIAAGGSTTVDLQWTPEGGKDSYSLTVVVDPDNSVVESEETNNELTVLVGSASVEVPVANFTAVPTSGSIPLTVNFTDQSTNSPTSWFWDFGDGENSTSQNPSHTYTSVGNHTVSLTVTNAEGSDSEVKTDYITVEVITPVAAFTADNTSGAAPFTVQFTDQSANLPAEWFWDFGDGTNSTEQNPAHTYITAGKYTVKLTTANAAGNDSEEKTDYITAYIPPVANFTATPTSGGAPLTVTFTDTSTNMPTEWLWDFGDGVNSTDQNPIHTYTSAGNYTVSFTATNSGGSDSELKTAYITVTAEAGKGGLADTAWPKFHYDLGNTGQSPYTGPQTANVVWTYTTTGEMRLGQGAVIGSDGTMYIGDRSGTLYAINPNGTLKWGTSIGTKSFPTPAIASDGTIYAGGNDKIVYAINPDGSIKWSYPVGTKSVISSPAIASDGTIYFATSTNLFALKPDGTLKWNSAVSYGGYNYFSPAIGSDGTIYLGTYGGALSAINADGTLKWTYSIPAPNNYIYDTPAIASDGTIYFGCNNANLYALNPDGTLKWTYSVGTSASQAIKSSPAIGSDGTIYFGSNNQYFYALYPDGTLKWSSKAGSFGQTTPTIGSDGTIYIDNYGSKTLYAFNPDGTVKWSYADGNYNYASPAIASDGTLYFGKGYTVYAFRDVAPVSNFTADPTSGTAPLTVNFTDQSTGSPTSWFWDFGDGANSTEQNPVHTYSVAGNYTTNLTVTNSAGTDFEVKTDYITVLEPSTPEPEPVAAFTADVTSGSAPLTVNFTDQSTGSPTSWLWDFGDGTNSTEQNPVHTYASAGSYTVNLTVENDAGSDFELKTDYIEVSEISGSTVTLYFDPESSSVAENESTEISLVASNFPAGLSGYNLTVAIDDPAVAEIVGIEYPTWALITENSTLPGTSIYMKTVDLEDSIKEEEGEVVLATLTVSGKEKGSANISIGVKRLEDDSGDSIEPALLTGTIEVTILSLLPDQEYAPKDLDGDGLYEDLTGNGEFSFVDIVAYFHNMDWIEENMPVEYFDFNGNGRIDFDDVVDMFAMI”, the protein production is reported as “failed”.

In the case of “MTLTEQPQRIAILHSLYLEYFLALGTPPIASAGASTGDAMKALGEWETLKPYAGTAKIIDLGSARDLNLEAILGANPDVIVTFKGQGNLDKIYEQLEQIAPVILVDFSAPWQEQILACAEIVNKEADAQKLIKEIEDSVQSAKEKLSRLEHHHHHH”, the protein production is reported as “failed”.

For “MIVTLLGTGDSPGTPILNCHCRTCEDARRKGWERKRFSVMVQNNGKTVLIDTSPDLRRQLLDCGVEKVDAVIWTHCHFDHFGGFGEFYRVQNNVKVYSTPQIHEDIGHFMKFMSYKPVEVEAFENFTIAGMDFTLLPVNHPPVSAVGVKVEWKGYKVVVSGDTNVRIPEATLREMQNPDLLIVEALAPTGRFRKHMNAKEALELAKRLNAGKVVLTHLGHFFPPHHLAIKSYPVGEDYQSFSFGEGRLDEFFGDLEHHHHHH”, the protein production was “failed”.

For “MTVQRREKGSSITRVLEIIEAISRAERPMSPAELAFLLDIPKPSIHRLLQQLEADNYVQINMRGLLVPGDRMHSIALGVLHSSRFKALRQAILKKLAETIGETCGIAIPDGIEMIYYDRVQTNWPLRVNLPVGSHTPVACTASGKLYLSSLPKERRHRIIGKLSLEKLARNTLIESESLEKELINIQANELGTDNEEFIDGMVACSVPIKDQDGKLFACLFTHAPVIRKSLDELLAFEPALRHAAIELGDLLKEQ”, the protein production was “failed”.

In the case of “STFYVEFNRKDSDKTLAKAFQNKKIRQALSLAINRKSYVNNTLGNGSTVSKGYVSEDLAKNPTTGKDFTTDAAVPSAVDYNLTKAKKLWKEGLKEIGETKLNIKLLSDDTDAGKKATEFIQGGWEKLPGLTVTNQNVPFKTRLQRSQNGNFDTVISAWNADFTDPISFLSLFTSDNSYNNGKYDSAAYDDAVKKAEGADANNKTARWADMVAAEKQLMNDQGVIPIYQQASATLTRSNLKGIIYNTAGSNYNFKYMSVK”, the protein production is reported as “failed”.

In the case of “MLKILATQFNGKLQTLTKQEDELFDVVRLLAQALVGQGKVYLDAYGEFEGLYPMLSDGPDQMKRVTKIKDHKTLHAVDRVLIFTPDTERSDLLASLARYDAWHTPYSIITLGDVTETLERSIAPLALKFDKGLLPAEDGSRHGLPSLALGAFLLTHILTQLQEMTEEWE”, the protein production is reported as “not failed”.

With “MIPYAFIILLVVFFSVFDFSNLNVFKKKILLFFLSFILILFVGTRFETGDDWGEYTKVFDKIPLVSDLWNDNGMFLLFRMEPGYILFNSVIKSFGGSINEVFLLSSIVVISLFFVFQKRYTLLPFLAVLLYMRYGYMQFNMMFVRQGIAISIFFYSLKYIEDKKIIKYLLINILSSLFHSSLLIVLPLYFVINRRYSNIFLCTVVFISVLLSFFDWMGAILSFFPPFIQSSLTSYTESDVWGGMTGKINIAVAEKFILLLMCLRLREKLEQKNISFNLVFNLFVLSIICYYAFFQTYVFQQRTVLIFQLSTIFIISQLFLFFSVKNRMMVLFILNLMVIYFFFRYINIGKDVYLPYRSWLI” the protein production was “failed”.

With “MVVMYFLFPETTNVVIVSALNFAALFLSFFTHYTSSRKDEDLTILAFSCLFSSLLSLFFLRIFLMNPKNAWMFLSSSKLILAEGFFFFLIGKKKNSFKWLVVLTFVILFAVSVLRFDFTLHLESVSLALFSLLLLIRKPQTTLLSVSLFLYSISSIFFYFFRSAYPYHVASGSIFLMWHFVKKYVETPKEEAEKLSKELEIPPERISSAVTNLYNFLIEILRIIPEILREDDQNRVREMLSKYFSQEVSSYFPKLRDAFSKFAEEYISFLEEKQKFQDMYVVLTKNLAHNLKNPVNAIYVSAQLLKQQFPETSPVVRNIEKLCHEMTEEIERILKTSIGRSEVLRKNDVEKALEPILETARLKNLETDIEMEFDELEIDKDAFLALVLNLFSNAVKYTPSGRVVLKIEKKNDKINLRVSDTGPGLKEQNGFGLFTVKKLVNYLNGSMEVIKKDGTTFVITLPLRRDKNDSTDRGR” the protein production was “failed”.

In the case of “MNTSHSSPSNTLLWQSLGLGLLALLLFCAGADHQSAIGFDSRFVLFAKEMLRHGPGFFPTTYGQPYADYSSASTLLVWLFSLPGGQVTSLTAWLPTAIASALIVSLIYRLLAPYSRTWALLSVALLLLSNTFISETRAVSLDQMLAAVSLAVFYLGYAHDHFGTRRRLGWIFLLLVLGFAIRGPIGLVIPTGMLCSYYLLNGQWRRLFSVGFSALALLVACVGLLLWLAKLSGGQAFVDDVIRMQFMGRMDGSEGSSDVFYYFTSSLGNYALAYPLAILAWLAVLLTRATEQGPGLKLLRLCTAAGLIVMIGLSIPQAKKARYLLPMLPMAAIIAAYPFQAGRGRLLAWLRGAIQGLWLLLPGLLIIGLLVLRRKFPEQLDSLTPMLLVLGLLQLLSLGLLFKRQWRAVGLAYSAVLAVWACYIGVFEPVEHRLYDTRTFSHSAMQLIEADPAPVVLHRMGKDAKAIKFMVNLDRDLQPQFTESPDALAQVPGPAWVILDQSDLASLQNTPLADLKPVLSGRFDKNDFVLLHLTGPTAAQP”, the protein production is reported as “failed”.

With “MNNSINHKFHHISRAEYQELLAVSRGDAVADYIIDNVSILDLINGGEISGPIVIKGRYIAGVGAEYADAPALQRIDARGATAVPGFIDAHLHIESSMMTPVTFETATLPRGLTTVICDPHEIVNVMGEAGFAWFARCAEQARQNQYLQVSSCVPALEGCDVNGASFTLEQMLAWRDHPQVTGLAEMMDYPGVISGQNALLDKLDAFRHLTLDGHCPGLGGKELNAYITAGIENCHESYQLEEGRRKLQLGMSLMIREGSAARNLNALAPLINEFNSPQCMLCTDDRNPWEIAHEGHIDALIRRLIEQHNVPLHVAYRVASWSTARHFGLNHLDLLAPGKQADIVLLSDARKVTVQQVLVKGEPIDAQTLQAEESARLAQSAPPYGNTIARQPVSASDFALQFTPGKRYRVIDVIHNELITHSHSSVYSENGFDRDDVCFIAVLERYGQRLAPACGLLGGFGLNEGALAATVSHDSHNIVVIGRSAEEMALAVYQVIQDGGGLCVVRNGQVQSHLPLPIAGLMSTDTAQSLAEQIDALKAAARECGPLPDEPFIQMAFLSLPVIPALKLTSQGLFDGEKFVFTTLEVTE” the protein production was “failed”.

With “SEEDNRAPQLWRKTLTAPAPFADETNCQCQAPHEKLTIAQARLGTPADRPVRVYADGIFDLFHSGHARALMQAKTLFPNSYLLVGVCSDDLTHKFKGFTVMNEAERYEALRHCRYVDEVIRDAPWTLTPEFLEKHKIDFVAHDDIPYSSAGSDDVYKHIKEAGMFVPTQRTEGISTSDIITRIVRDYDVYARRNLQRGYTAKELNVSFINEKRYRFQNQVDKMKEKVKNVEERSKEFVNRVEEKSHDLIQKWEEKSREFIGNFLELFGPDGAWKQMFQERSSRMLQALSPKQSPVSSPTRSRSPSRSPSPTFSWLPLKTSPPSSPKAASASISSMSEGDEDEK” the protein production was “failed”.
